# Laboratory results reported in the nanobody polyreactivity screen of Harvey et al. (2022).
# Assay: yeast display, Sf9 membrane polyspecificity reagent, FACS + sequencing; frameworks hold sequencing errors
# Method in brief: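 Polyreactivity labels are assigned by the sorting gate from which each nanobody was recovered. The gates were low and high (top ~1%), set on anti-HA fluorescence for expression and streptavidin fluorescence for reagent binding. Before sorting, galactose-induced (36–48 hours) yeast display cells were stained for 1 hour at 4 °C with 10% biotinylated, detergent-solubilized Sf9 membrane reagent.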
row,Sequence,polyreactivity (PSR sort gate)
1,QDQLVESGGGLVQAGGSLRISCAASGSTFFGYAMGWYRQAPGKERELVATISSGDSTNYADSVKGRFTFSRDNAKNTVYLQMNSLKPEDTAVFYCAAQGGDGVLALYYYWGQGTQVTVSS,low polyreactivity
2,QVQLVESGGGLVQAGGSLRLICDASGNTIIRYAMGWYRQGPGKERELVAAISYSGGRTYYADSVKGRFTISRDNAKNTVYLQMNSLKTEVTAVYYCNAASRYGCDYWRQGTQVTVSS,high polyreactivity
3,QVQLVESGGGLVQAGGSLRLSCAASGFIFYYNAMGWYRQAPGKERELVAGISRSAGSTYYADSVKGRFTISRDNAKNTVYLQMNSLKPEDTAVYYCNAEVYGGRYYVDMYYWGQGTQVTVSS,low polyreactivity
4,QVQLVESVGGLVQAGGSLRLSCAASGSIFEYYAMGWYRQAPGKERELVAAITRSGGSTYYADSVKGRFTISRDNAKNTVYLQMNSLKPEDTAVYYCAVRGYSSYTYDEYYVGYDYWGQGTQVTVSS,low polyreactivity
5,QVQLVESGGGLVQAGGSLRISCAASGRIFTTYAMGWYRQAPGKEREFVADITLSGSSTYYADSVKGRFTISRDNAKNTVYLQMNSLKPEDTAVYYCAARTGRYYRRYDYWGQGTQETVSS,high polyreactivity
6,QVQLVESGGGLVQAGGSLRLSCAASGRTFWNYAMGWYRQAPGKERELVAVIRFSDGSTYYADSVKGRFTISRDNAKNTVYLQMNSLKPEDTAVYYCAADDLLDYDYWGQGTQVTVSS,low polyreactivity
7,QVQLVESGGGLVQAGGSLRLSCAASGSTYRVKAMGWYRQAPGKEREFVAAITRGGSTNYADSVKGRFTISRDNAMNTVYLQMNSLKPEDTAVYYCATAYRGRAWGYVYWGQGTQVTVSS,high polyreactivity
8,QVQLVESGGGLVQAGGSLRLSCAASGRIFQVNDKGFYIQAPGKETELVASITYSGGSTYYADSVKGRFTISRDNAKITVYLQMNSLKPEDTAVYYCNKQNYVWVLVIYYYWGQGTQVTVSS,low polyreactivity
9,QVQLVESGGGLVQAGGSLRLSCAASGSIFDGNAMVSYRQAPGKDRELVADISRGGSTYYADSVKGPFTISRDNAKNTVYLQMNSLTPEDTAVYYCNVEFFFWPYEYGYWGQGTQVTVSS,low polyreactivity
10,QVQLVESGGGLVQAGGSLRLSCAASGSTFRLYAMGWYRQAPGKERELVAAISQRGGSTYYADSVKGRFTISRDNAKNTVYLQMNSLKPEDTAVYYCNTDWYRKWGKPYYYWGQGTQVTVSS,high polyreactivity
11,QVQLVESGGGLVQAGGSLRLSCAASGLTITQYVMGWYRQAPGKERDLDAAISWGGTSTYYADSVKGRFTISRDHAKNTVYLQMNSLKPEDTAVYYCNARSVYLSFWGFDYWGQGTQVTVSS,low polyreactivity
12,QVQLVESGGGLVQAGGSLRLSCAASGITFKRYAMGWYRQAPGKERELVAAITISAGSTYYADSVKGRFTISRDNAKNTVYLQMNSLKPEDTAVYYCAAESYGSWYYYWGQGTQVTVSS,high polyreactivity
13,QVQLVESGGGLVQAGGSLRLSCAASGRTFRLYAMGWDRPAPGKERELVAAITRGGRTTYADSVKGRFTISRDNAKNTVYLQMNSLKPEDTAVYYCAARYVERHTDYYYWGQGTQVTVSS,low polyreactivity
14,QVQLVESGGGLVQAGGSLRLSCAASGLTFYGYGMGWYRQAPGKERELVASITSGGNTYYADSVKGRFTISRDNAKNTVYLQMNSLKPEDTAVYYCAVTAIALYYSSGYYWGQGTQVTVSS,low polyreactivity
15,QVQLVESGGGLVQAGGSLRLSCAASGSIFPYNPMGWYRQAPGEFGAAISYSSGSTYYADSVKGRFTISRDNAKNTVYLQMNSLKPEDTAVYYCAAGLPKYEHEYWGQVTQVTVSS,low polyreactivity
16,QVQLVESGGGLVQEGGSLRLSCAASGSILIVYAMGWYRQATGKERELVAAITRGGRTNYADSVKGRFTISRDNAKNTVYLQMNSLKPEDTAVYYCAARVLPANVKPYNYWGQGTQVTVSS,high polyreactivity
17,QVQLVESGGGLVQAGGSLRLSCAASGSIIYIYAMGWYRQAPGKERELVAAISSGDRTNYADSVKGRFTISRDNAKNTVYLQMNSLKPEDTAVYYCAAERKNKYDYWGQGTQVTVSS,high polyreactivity
18,QVQLQDSGGGLVQAGGSLRLSCAASGTIVTARFMGWYRQAPGKERELVATITDGGNTNHADSVKGRFTISRDNAKNTVYLQMNSLKPEDAAVYYCAAGEVDNDTLLYWGQGSQVTVSS,low polyreactivity
19,QVHLVESGGGLVQSGGSLRLRCAASGSTFYGYTKAWYRQAPGKERELVAAINWSGTRTYYADSVNGRFTISRDTAKNTVYLQMNSLKPEDTAVYYCAAERYYWGLGTQVTVSS,high polyreactivity
20,QVQIVESGGGLVQAGGSLRLSCAASGNNFRYNTMGWYRQAPGKERELVAVITRRGSSTYYADSVKGRCTISRDNAKNTVYLQMNRLKPEDTAVYYCAAAPYYVTLVTRRDYWGQGTQVTVSS,high polyreactivity
21,QVQLVESGGGIVQAGRSLRLSCAASGRTFYYYVMGWYRQAPGKERELVAAISRGGRTYYADSVKGRFTISRDNAKNTVYLQMNSLKPEDTAVYYCNAVPRKSRHRYDYWGQGSQVTVSS,high polyreactivity
22,QVQLVESGGGLVQAGGSLRLSCAASGSIFPEYAMGWYRQAPGKERELVAAITTSGGSTYYADSVKGRFTISRDNAKNTVYLQMNSLKPEDTAVYYCAAGTQAHAYVVRPIEMDYWGQGTQVTVSS,low polyreactivity

row,Sequence,polyreactivity (PSR sort gate)
1,QVQLEESGGGLVQAGGSLRLSCAASGSTFYYNAMGWYRQAPGKEREFVARISRSGGSTYADSVKGRFTISRDNAKNTVYLQMNSLKPEDTGVYYCNADAYGTPEFTSYAVRYDYWGQGTQVTVSS,low polyreactivity
2,QVQLVESGGGLVQAGGSLRLSCAASGSIFDANAMGWYRQAPGKERELVATIRIGGSTNYADSVKGRFRISRDNAKNTVYLQMYSLKPEDTAGYYCAASRQFRSRRFYYWGQGTQVTVSS,high polyreactivity
3,QVQLVESGGGLVQAGGSLRLSCAASGSIFFYNAMGWYRQAPGKERELVAAITTRGGSTYYADSVKGRFTISRDNAMNTVYLQKNSLKPEDTAVYYCTADYYWTSLAMDSWGQGTQVTVSS,low polyreactivity
4,QVQLVESGGGLVQAGGSLRLSCAASGFTYIRYAMGWSRKATGKERQLVAAIRGTGTSTYFADSVKGRFTISRDNGKNTVYLQMNSLKPEETAVYYCNNVSGRSPYTRYDYWGQGTQVTVSS,low polyreactivity
5,QVQLVESVGGLVQAGGSLRLSCAASGSIFSRNAMGWYRQAPGKERELVAAIRSTVSTYYADSVKGRFTISRDNAKNTVYLQMNSLKPEDTAVYYCATVTHVSPNKYYYWGQGTQVTVSS,high polyreactivity
6,QVQLEDSGGGLVQAGGSLRLSCAASGSIFRRNFMGWNRQAPGKERELVAAISWSGDRTYYADSVKGRFTISRDNAKNTVYLQMNSLKPEDTAVYYCNAVYWPYRYDYWGQGTQVTVSS,high polyreactivity
7,QVQLVESGGGLVQAGGSLRLSCAASGSIFYFYAMGWYRQAPGKERELVATITRRTGRTYYADSVKGRFTISRDNAKNTVYLQMNSLKPEDTAVYYCAARPKGPYGVWYNYWGQGTQVTVSS,high polyreactivity
8,QVQLVESGGGLVQAGGSLRLSCAASGRIFYRNAMGWYRQAPGKERELVAAISYSGGRTYYADSVKGRFTISRDNAKNTVYLQMNSLKPEDTAVYYCAARYAWGYVDPGDYWGQGTQVTVSS,high polyreactivity
9,QVQLVESGGGLVQAAGSLRLSCAASGFTLTGNAMGWYRQATGKERELVAAISRNGGSTFYADSVKGRFTISRDNAKNTVFLQMNSLKPEDTAVYYCNASRYRHSAYKYDSWGQGTQVTVSS,high polyreactivity
10,QVQLVESGGGLVQAGGSLRLSCAASGLIFNVNVMGWYRQAPGKERELVAAIDYSGGSTYYADSVKGRFTISRDNAKNTVFLQMNSLKPEDTAVYYCSADDAAWPYSWWGFDYWGQGTQVTVSS,low polyreactivity
11,QVQLVESGGGLVQAGGRLRLSCAASGITFKRYAMGWYRQAPRKERELVAAISDIGGRTYYADSVKGRFSISRDNAKNTVYLQMYSLKPEDTAVYYCAADYYSPVDWYYYWGQGTQVTVSS,high polyreactivity
12,QVQLVESGGGLVQAGGSLRLSCAASGRTFRYNAMGWYRQAPGKERELVAAISSGDRTNYADSVKGRFTISRDNAKNTVYLQMNSLKPEDTAVYYCAAPTDSYYEFDYWGQGTQVTVSS,low polyreactivity
13,QVQLVESGGGLVQAGGSLRIICAASGSTLGYNAMGWYRQAPGKERELVAAISSDGGSTYYADSVKGRFTISRDNAKNTVYLQMNSLKPEDTAVYYCAAYYYTPGYGSWGQGTQVTVSS,low polyreactivity
14,QVQLVESGGGIVQAGGSLRLSCAASGRTFYAYTMGWYRQAPGKETELVAANSRTGGRTYYADSVKGRFTISRDNAKNTVYLQMNSLKPEDTAVYYCAAGSKPGIQFRSVYSAYRYYYCGQGTQVTVSS,high polyreactivity
15,QVQLVESGGGLVQAGGSLRLTCAASGRTLGGYTMGWSRQAPGKERELVAAITTGGSTNYADSVKGRFTISRDNAKNTVYLQMNSLKPEDTAVYYCATELVFDKRYWYDYWGQGTQVTVSS,low polyreactivity
16,QVQLVESGGGLVQAGGSLRLSCAASGYTFRLYAMGWYRQAPGKERELVAAITSRGGTFYADSVKGRFTLSRDNAKNTVYLQMNSLKPEDTAVYYCAVAPNYPDFRRAIYLYDYWGQGTQLTVSS,low polyreactivity
17,QVQLVESGGGLVQAGGSLRLSCAASGRTQWRYAMGWYRQAPGKERELVASIRSGGSTYYADSVKGRFTISRDNAKNTVYLQMNSLKPEDTAVYYCAARYYWGAEAGYYYWGQGTQVTVSS,high polyreactivity
18,QVQLVESGGGLVQAGGSLRLSCAASGRTFGFNAMGWYRQAPGKERELVATITTGGSTNYADSVKGRFTISRDNAKNTVYLQMNSLKPEDTAVYYCATDGWFRSGYKYFTHFYFWGQGTQVTVSS,high polyreactivity
19,QVQLVESGGGLVQAGGSLRLSCAASGLILVPNTMGWYRQAPGKARELVAAISYSGGGTYYADSVKGRFTISRDNAKNTVYLQMNSLKPEDTAVYYCAAYDKRESAPYGYWGQGTQVTVSS,low polyreactivity
20,QVQLVESGGGLVQAGGSLRLSCAASGRTFYIYAMGWYRQAPGTERELVAAITWSGGTTYYADSVKGRFTISRDNAKNTVYLQMNSLKPEDTAVYYCAADRYGFYLESYYWGQGTQVTVSS,low polyreactivity
21,QVQLVESGGGLVQAGGSLRLSCAASGFTFRRYAMGWYRQAPGKERELVAGITGRGGSTYYADSVKGRFTISRDNSKNTVYLQMNSLKPEDTAVYYCNKPRAARGYLTGQLDYWGQGTQVTVSS,high polyreactivity
